Values of other authors in publication PMC11507603.

Biological target: Ubiquitin (UniProt P0CG48)
Test: SPR

Chain of Epsin Ent1 ENTH (Q12518 8-146): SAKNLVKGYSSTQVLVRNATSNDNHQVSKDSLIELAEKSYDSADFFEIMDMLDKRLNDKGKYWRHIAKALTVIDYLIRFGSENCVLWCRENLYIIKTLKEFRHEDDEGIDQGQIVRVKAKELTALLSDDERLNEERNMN

Epsin Ent1 ENTH (from UniProt Q12518)
Kd: 2300 µM
